According to the supplement of paper PMC10065799, “High-throughput profiling of sequence recognition by tyrosine kinases and SH2 domains using bacterial peptide display” (eLife, 2023):

test system: Fer (mouse); experiment: phosphorylation enrichment, bacterial display (enrichment ratio); higher = better substrate or ligand; peptides without Tyr show the background
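Further: 11-residue human phosphosite peptides and single-mutation variants displayed on the E. coli surface, counted by deep sequencing, each peptide's frequency after selection divided by its frequency in the unselected input library; frequency after pTyr selection over input frequency; kinase dosed for 20-30% of maximal phosphorylation in three min.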

Sequence	phosphorylation enrichment
IINENYDFLKV [NUP98_Y1664_G1669V_YF]	2.45
RNESFYDTFST [EFCAB3_Y372]	13.2
SRASYYRKGGC [ALK_Y1283_Y1278S]	0.326
ISHVAYLVLGK [TRRAP_Y892_R893L]	0.505
HLWRIYFDITD [MMP27_Y307_YF]	0.531
KLIETCFSKNY [PLP1_Y50_Y50C]	0.47
AVISVYDLVVV [PSEN1_Y256_A260V]	13.3
PSELFYSKIGP [SMG1_Y2254_YF]	10.4
ASELGYQFQAI [UROD_Y133_V134Q]	0.493
RKKEEYKMAPY [F8_Y1990_L1994P]	0.926
RLPINYTTRRI [LAMA2_Y2894_G2889R]	0.289
FGSSSYGGAGG [RPA2_Y14_YF]	0.334
TEGNGYISFNE [LCP1_Y28_D24E]	0.487
WLFFRYLPIGC [ATP2A2_Y836_A838P]	0.559
LKGQVYILGRE [ASS1_Y359]	0.756
YGMSSYITRED [FNDC3B_Y180_T179S]	0.524
DSFATYFRRVL [H2BW1_Y84]	0.426
NHYKICNLCAE [PTEN_Y68_Y68C]	0.384
VNCHQYDGLVE [ATP2A2_Y407]	0.598
GREEFYSTHPH [LRRK2_Y1402]	0.528
KLPYLYDDPFS [GPX2_Y127_P126L]	1.28
GVRTIYTIDGS [DCLK2_Y124]	0.52
KSAAIYNPVIF [RHO_Y301_YF]	16.1
NTEGGYCCICA [CRELD1_Y328_R329C]	0.583
VIKDKYPKVRF [APTX_Y209_A212V_YF]	0.448
DFPGIYSGFDD [POLR1C_Y33_N32I_YF]	0.782
LTFHMYADPNF [SOS1_Y618_YF]	0.901
ILGRYYETSSI [PAX2_Y73_G76S]	0.629
PQEVTYAQLDH [KIR3DL2_Y398]	3.3

molecular target: Fyn (UniProt P06241); experiment: as above
Sequence (P06241 whole entry, looked up): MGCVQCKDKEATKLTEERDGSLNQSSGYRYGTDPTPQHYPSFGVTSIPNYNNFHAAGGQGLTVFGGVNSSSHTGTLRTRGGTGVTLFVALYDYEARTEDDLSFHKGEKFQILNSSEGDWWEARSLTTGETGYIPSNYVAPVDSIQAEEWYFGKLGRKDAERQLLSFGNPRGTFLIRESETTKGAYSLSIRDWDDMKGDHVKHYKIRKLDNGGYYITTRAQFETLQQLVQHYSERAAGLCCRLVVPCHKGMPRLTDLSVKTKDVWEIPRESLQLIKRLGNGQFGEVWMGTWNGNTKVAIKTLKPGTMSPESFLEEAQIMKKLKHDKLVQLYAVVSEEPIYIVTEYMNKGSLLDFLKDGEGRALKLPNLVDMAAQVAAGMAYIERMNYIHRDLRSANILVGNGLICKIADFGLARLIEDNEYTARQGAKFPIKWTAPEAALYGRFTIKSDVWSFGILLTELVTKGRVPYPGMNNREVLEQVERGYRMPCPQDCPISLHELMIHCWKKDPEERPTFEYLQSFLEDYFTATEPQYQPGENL

Sequence	phosphorylation enrichment
IINENYDFLKV [NUP98_Y1664_G1669V_YF]	0.512
RNESFYDTFST [EFCAB3_Y372]	16.4
SRASYYRKGGC [ALK_Y1283_Y1278S]	0.38
ISHVAYLVLGK [TRRAP_Y892_R893L]	0.507
HLWRIYFDITD [MMP27_Y307_YF]	0.532
KLIETCFSKNY [PLP1_Y50_Y50C]	0.456
AVISVYDLVVV [PSEN1_Y256_A260V]	5.2
PSELFYSKIGP [SMG1_Y2254_YF]	3.97
ASELGYQFQAI [UROD_Y133_V134Q]	0.407
RKKEEYKMAPY [F8_Y1990_L1994P]	0.939
RLPINYTTRRI [LAMA2_Y2894_G2889R]	0.35
FGSSSYGGAGG [RPA2_Y14_YF]	0.45
TEGNGYISFNE [LCP1_Y28_D24E]	0.539
WLFFRYLPIGC [ATP2A2_Y836_A838P]	0.38
LKGQVYILGRE [ASS1_Y359]	0.679
YGMSSYITRED [FNDC3B_Y180_T179S]	0.423
DSFATYFRRVL [H2BW1_Y84]	0.472
NHYKICNLCAE [PTEN_Y68_Y68C]	0.4
VNCHQYDGLVE [ATP2A2_Y407]	0.626
GREEFYSTHPH [LRRK2_Y1402]	0.42
KLPYLYDDPFS [GPX2_Y127_P126L]	0.695
GVRTIYTIDGS [DCLK2_Y124]	1.38
KSAAIYNPVIF [RHO_Y301_YF]	5.56
NTEGGYCCICA [CRELD1_Y328_R329C]	0.512
VIKDKYPKVRF [APTX_Y209_A212V_YF]	0.278
DFPGIYSGFDD [POLR1C_Y33_N32I_YF]	9.82
LTFHMYADPNF [SOS1_Y618_YF]	0.577
ILGRYYETSSI [PAX2_Y73_G76S]	0.547
PQEVTYAQLDH [KIR3DL2_Y398]	9.11

molecular target: Fes (UniProt P07332); experiment: as above
Sequence (P07332 whole entry, looked up): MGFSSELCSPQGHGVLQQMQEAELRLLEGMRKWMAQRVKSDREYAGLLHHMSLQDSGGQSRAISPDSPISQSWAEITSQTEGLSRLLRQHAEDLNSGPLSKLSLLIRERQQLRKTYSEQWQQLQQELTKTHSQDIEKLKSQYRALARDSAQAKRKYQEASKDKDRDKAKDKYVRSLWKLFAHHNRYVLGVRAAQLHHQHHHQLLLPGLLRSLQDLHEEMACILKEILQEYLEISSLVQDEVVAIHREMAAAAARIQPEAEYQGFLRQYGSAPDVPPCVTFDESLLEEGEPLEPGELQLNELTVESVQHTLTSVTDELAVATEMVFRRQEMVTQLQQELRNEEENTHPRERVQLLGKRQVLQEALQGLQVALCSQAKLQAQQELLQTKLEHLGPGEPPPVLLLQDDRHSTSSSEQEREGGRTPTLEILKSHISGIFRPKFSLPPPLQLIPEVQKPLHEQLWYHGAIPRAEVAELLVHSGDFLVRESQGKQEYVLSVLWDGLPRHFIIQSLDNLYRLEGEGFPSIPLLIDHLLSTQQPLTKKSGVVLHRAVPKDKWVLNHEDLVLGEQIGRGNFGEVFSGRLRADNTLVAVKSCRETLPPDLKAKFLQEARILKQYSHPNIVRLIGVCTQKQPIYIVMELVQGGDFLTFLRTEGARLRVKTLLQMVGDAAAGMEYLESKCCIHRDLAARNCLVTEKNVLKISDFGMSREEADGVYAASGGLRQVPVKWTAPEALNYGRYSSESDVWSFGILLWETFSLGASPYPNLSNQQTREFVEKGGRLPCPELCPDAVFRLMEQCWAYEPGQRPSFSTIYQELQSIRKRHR

Sequence	phosphorylation enrichment
IINENYDFLKV [NUP98_Y1664_G1669V_YF]	1.01
RNESFYDTFST [EFCAB3_Y372]	1.46
SRASYYRKGGC [ALK_Y1283_Y1278S]	0.5
ISHVAYLVLGK [TRRAP_Y892_R893L]	1.07
HLWRIYFDITD [MMP27_Y307_YF]	1.81
KLIETCFSKNY [PLP1_Y50_Y50C]	1.38
AVISVYDLVVV [PSEN1_Y256_A260V]	1.46
PSELFYSKIGP [SMG1_Y2254_YF]	1.2
ASELGYQFQAI [UROD_Y133_V134Q]	0.92
RKKEEYKMAPY [F8_Y1990_L1994P]	1.33
RLPINYTTRRI [LAMA2_Y2894_G2889R]	0.602
FGSSSYGGAGG [RPA2_Y14_YF]	0.559
TEGNGYISFNE [LCP1_Y28_D24E]	1.01
WLFFRYLPIGC [ATP2A2_Y836_A838P]	1.3
LKGQVYILGRE [ASS1_Y359]	1.26
YGMSSYITRED [FNDC3B_Y180_T179S]	0.844
DSFATYFRRVL [H2BW1_Y84]	1.2
NHYKICNLCAE [PTEN_Y68_Y68C]	0.691
VNCHQYDGLVE [ATP2A2_Y407]	1.2
GREEFYSTHPH [LRRK2_Y1402]	0.575
KLPYLYDDPFS [GPX2_Y127_P126L]	1.3
GVRTIYTIDGS [DCLK2_Y124]	0.846
KSAAIYNPVIF [RHO_Y301_YF]	0.939
NTEGGYCCICA [CRELD1_Y328_R329C]	0.966
VIKDKYPKVRF [APTX_Y209_A212V_YF]	0.591
DFPGIYSGFDD [POLR1C_Y33_N32I_YF]	1.3
LTFHMYADPNF [SOS1_Y618_YF]	1.97
ILGRYYETSSI [PAX2_Y73_G76S]	0.705
PQEVTYAQLDH [KIR3DL2_Y398]	2.64

molecular target: FGFR3 (UniProt P22607); experiment: as above
Sequence (P22607 whole entry, looked up): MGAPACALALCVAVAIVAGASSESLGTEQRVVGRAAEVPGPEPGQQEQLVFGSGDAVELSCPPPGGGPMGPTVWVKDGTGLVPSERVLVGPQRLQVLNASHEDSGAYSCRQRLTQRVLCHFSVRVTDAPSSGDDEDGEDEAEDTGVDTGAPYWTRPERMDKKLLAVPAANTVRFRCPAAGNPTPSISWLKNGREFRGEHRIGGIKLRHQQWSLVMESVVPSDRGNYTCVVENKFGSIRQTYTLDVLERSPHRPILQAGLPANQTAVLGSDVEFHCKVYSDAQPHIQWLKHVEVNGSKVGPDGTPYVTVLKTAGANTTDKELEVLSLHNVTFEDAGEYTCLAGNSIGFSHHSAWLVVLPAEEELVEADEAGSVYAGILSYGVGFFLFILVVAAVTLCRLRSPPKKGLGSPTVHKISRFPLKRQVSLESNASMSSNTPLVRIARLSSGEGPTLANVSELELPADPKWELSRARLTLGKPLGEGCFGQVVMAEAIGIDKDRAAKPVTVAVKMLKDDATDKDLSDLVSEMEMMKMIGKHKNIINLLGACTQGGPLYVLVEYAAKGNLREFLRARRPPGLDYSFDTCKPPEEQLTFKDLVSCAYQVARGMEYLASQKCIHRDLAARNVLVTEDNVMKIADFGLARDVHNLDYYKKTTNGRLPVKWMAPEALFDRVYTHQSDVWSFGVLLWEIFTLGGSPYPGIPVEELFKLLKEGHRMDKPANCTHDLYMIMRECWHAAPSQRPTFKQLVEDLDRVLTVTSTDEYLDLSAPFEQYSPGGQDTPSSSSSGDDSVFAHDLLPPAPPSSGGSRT

Sequence	phosphorylation enrichment
IINENYDFLKV [NUP98_Y1664_G1669V_YF]	0.779
RNESFYDTFST [EFCAB3_Y372]	0.915
SRASYYRKGGC [ALK_Y1283_Y1278S]	0.335
ISHVAYLVLGK [TRRAP_Y892_R893L]	0.75
HLWRIYFDITD [MMP27_Y307_YF]	1.19
KLIETCFSKNY [PLP1_Y50_Y50C]	0.739
AVISVYDLVVV [PSEN1_Y256_A260V]	1.02
PSELFYSKIGP [SMG1_Y2254_YF]	3.84
ASELGYQFQAI [UROD_Y133_V134Q]	0.59
RKKEEYKMAPY [F8_Y1990_L1994P]	0.941
RLPINYTTRRI [LAMA2_Y2894_G2889R]	0.839
FGSSSYGGAGG [RPA2_Y14_YF]	0.436
TEGNGYISFNE [LCP1_Y28_D24E]	0.636
WLFFRYLPIGC [ATP2A2_Y836_A838P]	0.778
LKGQVYILGRE [ASS1_Y359]	1.07
YGMSSYITRED [FNDC3B_Y180_T179S]	0.696
DSFATYFRRVL [H2BW1_Y84]	0.703
NHYKICNLCAE [PTEN_Y68_Y68C]	0.519
VNCHQYDGLVE [ATP2A2_Y407]	0.818
GREEFYSTHPH [LRRK2_Y1402]	0.465
KLPYLYDDPFS [GPX2_Y127_P126L]	0.689
GVRTIYTIDGS [DCLK2_Y124]	0.506
KSAAIYNPVIF [RHO_Y301_YF]	0.557
NTEGGYCCICA [CRELD1_Y328_R329C]	0.668
VIKDKYPKVRF [APTX_Y209_A212V_YF]	0.599
DFPGIYSGFDD [POLR1C_Y33_N32I_YF]	0.768
LTFHMYADPNF [SOS1_Y618_YF]	1.1
ILGRYYETSSI [PAX2_Y73_G76S]	0.802
PQEVTYAQLDH [KIR3DL2_Y398]	2.12
